Here are results for one substance from patent US20130245224A1.

In assay [1] the target is Gammanorm 165 mg/ml (Octapharma), diluted to 1 mg/ml in Equilibration buffer. As to the kind of experiment: column breakthrough, ligand on agarose, residence time 2.4 min.
Assay [2] shares this target. As to the kind of experiment: column breakthrough, ligand on agarose, residence time 6.0 min.

Values joined by “and” are separate entries in the source; they are usually repeats but may differ in a detail not shown here. Equal entries are not always repeated.

On to “Regular Z2: ligand dimer containing two copies of protein Z (SEQ ID No. 3 but without the P57I substitutions) (designed binder)”, for which, in assay [1], the Qb5 (dynamic binding capacity at 5% breakthrough) is 28.5 mg/ml resin and 29.9 mg/ml resin; the Qb10 (dynamic binding capacity at 10% breakthrough) is 31.4 mg/ml resin and 32.2 mg/ml resin; the Qb80 (dynamic binding capacity at 80% breakthrough) is 43.8 mg/ml resin and 46.1 mg/ml resin. In assay [2], the Qb5 (dynamic binding capacity at 5% breakthrough) was 38.1 mg/ml resin and 38.5 mg/ml resin; the Qb10 (dynamic binding capacity at 10% breakthrough) is 40.6 mg/ml resin and 40.4 mg/ml resin; the Qb80 (dynamic binding capacity at 80% breakthrough) was 46.7 mg/ml resin and 47.1 mg/ml resin.
